Patent US20160228506A1, “Compositions and Formulations for Prevention and Reduction of Tumorigenesis, Cancer Cell Proliferation and Invasion, and Methods of Production and Use Thereof in Cancer Treatment” (PRONUTRIA, INC., priority 2013, published 2016)

B1: SEQID-00515: protein of the 168 nutritive polypeptide library (protein, listed as Saccharomyces cerevisiae)
chain: MSNLLNKFADKLHGNDHDERYEDDNDDQTRQQRHEKHQQREFRNQGSKADPYGEENQGNFPQRQQPQSNLGGNTQFGGNDFQQQTTDYTAGTGGGTYTQTYRETNTQGQLDDDEDDDFLTSGQQQKQGRTRGAQSNRYQSSNIGSGRRDLSGSGNDEYDDDSGNQGVW
modifications: source: /note="strain ATCC 204508 / S288c"
notes: protein of the 168 nutritive polypeptide library
B2: SEQID-00534: protein of the 168 nutritive polypeptide library (protein)
chain: MSIYVGNLSYEVTEDDLTAVFAEYGSVKRVKLPTDRETGRMRGFGFVEMDTEAEEQSAIDALDGAEWCGRDLRVNKAKPRENSGSFGGGGGGRRGGGGYSRRS
modifications: Arthrospira platensis NIES-39
notes: as for B1
B3: SEQID-00533: protein of the 168 nutritive polypeptide library (protein)
chain: MVTEFQTRDLADVIRRPIVTEKATIQMELNQFTFDVDPRADKPTIKAAVELLFPVKVLSVNTQNPPRRQRRVGRFVGYKPRYKRAIVTLEDGEALRKVLFPEV
modifications: Arthrospira platensis NIES-39
notes: as for B1
B4: SEQID-00524: protein of the 168 nutritive polypeptide library (protein)
chain: MPAWYSIDSRVRGTSLVVKGLKENVEYHFRVSAENQFGISKPMKSEEPVIPKTPLSKASSNHNTVNFLS
modifications: Ovis aries
notes: as for B1
B5: SEQID-00521: protein of the 168 nutritive polypeptide library (protein, listed as Arthrospira platensis)
chain: MQDAITSVINSSDVQGKYLDASAIQKLKAYFATGELRVRAATTISANAANIVKEAVAKSLLYSDITRPGGNMYTTRRYAACIRDLDYYLRYATYAMLAGDPSILDERVLNGLKETYNSLGVPIGATVQAIQAMKEVTAGLVGADAGKEMGIYFDYICSGLS
B6: SEQID-00489: protein of the 168 nutritive polypeptide library (protein, listed as Saccharomyces cerevisiae)
chain: MSVEEVSKKFEENVSVDDTTATPKTVLSDSAHFDVKHPLNTKWTLWYTKPAVDKSESWSDLLRPVTSFQTVEEFWAIIQNIPEPHELPLKSDYHVFRNDVRPEWEDEANAKGGKWSFQLRGKGADIDELWLRTLLAVIGETIDEDDSQINGVVLSIRKGGNKFALWTKSEDKEPLLRIGGKFKQVLKLTDDGHLEFFPHSSANGRHPQPSITL
modifications: source: /note="strain ATCC 204508 / S288c"
notes: as for B1
B7: SEQID-00497: protein of the 168 nutritive polypeptide library (protein, listed as Saccharomyces cerevisiae)
chain: MSIASYAQELKLALHQYPNFPSEGILFEDFLPIFRNPGLFQKLIDAFKLHLEEAFPEVKIDYIVGLESRGFLFGPTLALALGVGFVPVRKAGKLPGECFKATYEKEYGSDLFEIQKNAIPAGSNVIIVDDIIATGGSAAAAGELVEQLEANLLEYNFVMELDFLKGRSKLNAPVFTLLNAQKEALKK
modifications: source: /note="strain ATCC 204508 / S288c"
notes: as for B1
B8: SEQID-00520: protein of the 168 nutritive polypeptide library (protein, listed as Gallus gallus)
chain: MSDEEKKRRAATARRQHLKSAMLQLAVTEIEKEAAAKEVEKQNYLAEHCPPLSLPGSMQELQELCKKLHAKIDSVDEERYDTEVKLQKTNKELEDLSQKLFDLRGKFKRPPLRRVRMSADAMLRALLGSKHKVNMDLRANLKQVKKEDTEKEKDLRDVGDWRKNIEEKSGMEGRKKMFEAGES
B9: SEQID-00532: protein of the 168 nutritive polypeptide library (protein)
chain: MSIAVGMIETIGFPAVVEAADSMVKAARVTLVGYEKIGSGRVTVIVRGDVSEVQASVSAGIESVKRVNGGEVSSTHIIARPHENLEYVLPIRYTDAVEQFRSY
modifications: Arthrospira platensis NIES-39
notes: as for B1
B10: SEQID-00528: protein of the 168 nutritive polypeptide library (protein, listed as Saccharomyces cerevisiae)
chain: MVLVQDLLHPTAASEARKHKLKTLVQGPRSYFLDVKCPGCLNITTVFSHAQTAVTCESCSTVLCTPTGGKAKLSEGTSFRRK
modifications: source: /note="strain ATCC 204508 / S288c"
notes: as for B1
B11: SEQID-00495: protein of the 168 nutritive polypeptide library (protein, listed as Vitis vinifera)
chain: MEKNVESDPNPPLASGPEFPPATTPADVKNDVALEKSVVPPPEVKADESKALAVVEKTPDSAAKKTSGGSFERDVALANLEKEKQLSFIRAWEESEKSKVDNKAQKKLSDVCAWENSKKAAVEANLKKIEEELEKKKAEYAEKMKNKVALIHKQAEEKKAMIEARRGEEFLKAEEMAAKFRATGQTPKKVLGCFGG
B12: SEQID-00509: protein of the 168 nutritive polypeptide library (protein, listed as Gadus morhua)
chain: MSDTEDVDQVEDEKPKFKPSAPKIPDGEKVDFDDIQKKRQNKDLSELQGLIDAHFEGRKKEEEELIALKERIEKRRAERAEQQRIRSEKDKERQARREEERLKREEADAKKKMEEDAKKKSALSNMGSNYSSHLQKADQKRGGGKKETEREKKKKILAARRKGLNIDHLNEDKLKDKINELHEWMSTLESEKFDHMERLNRQKYEVTTLRKRVEELSKFSKKGKTVRRK
B13: SEQID-00484: protein of the 168 nutritive polypeptide library (protein, listed as Saccharomyces cerevisiae)
chain: MSEKFPPLEDQNIDFTPNDKKDDDTDFLKREAEILGDEFKTEQDDILETEASPAKDDDEIRDFEEQFPDINSANGAVSSDQNGSATVSSGNDNGEADDDFSTFEGANQSTESVKEDRSEVVDQWKQRRAVEIHEKDLKDEELKKELQDEAIKHIDDFYDSYNKKKEQQLEDAAKEAEAFLKKRDEFFGQDNTTWDRALQLINQDDADIIGGRDRSKLKEILLRLKGNAKAPGA
modifications: source: /note="strain ATCC 204508 / S288c"
notes: as for B1
B14: SEQID-00507: protein of the 168 nutritive polypeptide library (protein, listed as Agaricus bisporus)
chain: MISFYDLTAKPPFKTVSVNSWKIRYALNFKNLPYKTLYFEFPDMAKEFSKVGIPPSSVSADGPSYTVPSLIDDSTNTRISESFTIALYLDKQYPDAPKLFPAGTEALQAAFHEEFYKVMSPTFPFFFPKAGNVLNKPSDDYFAVTRAKMFGMSMADFEPKGEARVEAWKKVKDAFDTLESWMSKTSGPFFMGETVSFADFVIGGLLNEFSMCMGENSPEWQDVLKWNNGRWATLKKKLEVYANTDQ
modifications: source: /note="var. bisporus"; source: /note="strain H97 / ATCC MYA-4626 / FGSC 10389"
notes: as for B1
B15: SEQID-00529: protein of the 168 nutritive polypeptide library (protein)
chain: MLGYISAGKMGSSPSGARFFKYEVVGMRQNDETDKTEYQIRSSGSQFVIVPYNRMNQEMRRINRMGGKIVSIEPMTTDNTVSEAEGE
modifications: Arthrospira platensis Sp-1
notes: as for B1
B16: SEQID-00518: protein of the 168 nutritive polypeptide library (protein, listed as Lactobacillus acidophilus)
chain: MTKGILGRKVGMTQIFTKDGVLVPVTVVEATPNVVMQVKTVESDGYEAVQLGYQDKREVLSNKPEKGHADKAKTSPKRFIREIRGVELKDYEVGSEVTVDTFKEGDVVNVTGTSRGHGYQGNIKRWGQSRGPETHGSRYHRIPGSMGSIINRVPKGKRLPGHMGVKKVTIENLVIEKVVADKNVLMIKGNVPGAKNSLIVVKTASKAVKADK
modifications: source: /note="strain 30SC"
notes: as for B1
B17: SEQID-00525: protein of the 168 nutritive polypeptide library (protein, listed as Saccharomyces cerevisiae)
chain: MTKNFIVTLKKNTPDVEAKKFLDSVHHAGGSIVHEFDIIKGYTIKVPDVLHLNKLKEKHNDVIENVEEDKEVHT
modifications: source: /note="strain ATCC 204508 / S288c"
notes: as for B1

Test: SGF digest of 168 nutritive polypeptide library, intact protein by LC-MS/MS
Format: in vitro ADME
Details: 168 nutritive polypeptide library SGF digest, LC-MS/MS spectral counts
Experimental: The in vitro intact half-life of multiple polypeptides in a complex mixture was determined using the simulated gastric in vitro digestion described above. Briefly, the 168 nutritive polypeptide library was generated as described herein by cloning, transforming, and expressing a gene library encoding 168 proteins as a single mixture. The recombinantly expressed proteins were purified from host cell proteins by IMAC purification as described herein.
The 168 Protein Library was treated with SGF as described above and the t=0 and t=10 min samples were analyzed for intact protein by LC-MS/MS. To begin, 10 μg of sample was loaded onto a 10% SDS-PAGE gel (Invitrogen) and run approximately 5 cm into the gel. The gel was excised into ten fractions from 100 kD to the dye front and the gel slices were processed by washing with 25 mM ammonium bicarbonate, followed by acetonitrile. Gel fractions were then reduced with 10 mM dithiothreitol at 60° C., followed by alkylation with 50 mM iodoacetamide at room temperature. Finally, the samples were digested with trypsin (Promega) at 37° C. for 4 h and the digestions were quenched with the addition of formic acid. The samples were then analyzed by nano LC/MS/MS using an EasynLC 1000 HPLC system interfaced to a ThermoFisher Q Exactive. Peptides were loaded on a trapping column and eluted over a 75 μm analytical column at 350 nL/min; both columns were packed with PepMap C18 3 μm resin (ThemoFisher). A 1 hour gradient was employed. The mass spectrometer was operated in data-dependent mode, with MS and MS/MS performed in the Orbitrap at 70,000 FWHM resolution and 17,500 FWHM resolution, respectively. The fifteen most abundant ions were selected for MS/MS. Data were searched against an appropriate database using Mascot to identify peptides. Mascot DAT files were parsed into the Scaffold software for validation, filtering and to create a nonredundant list per sample. Data were filtered at 1% protein and peptide false discovery rate (FDR) and requiring at least two unique peptides per protein. A full list of detected proteins and their spectral counts (SpC) was generated and reported as a function of each collected gel fraction. SpC are a count of the number of spectra identified for a given protein and are used as a measure of relative protein abundance (Liu, H. et al., Analytical Chemistry 2004, 76: 4193-4201). To calculate the percentage of intact protein remaining at the 10 min time point of the SGF digest the number of SpC representative of intact peptide in the t=10 min sample were divided by the number of SpC representative of intact peptide in the t=0 min sample. The number of SpC representative of intact peptide was defined as the sum of the SpC in the fraction with the highest number of SpC assigned to that protein in the t=0 min sample and the two flanking fractions.

First: B1
Second: B2
The “% Intact Protein at 10 min” value of the first is higher: 17% for the first, 0% for the second.

First: B3
Second: B4
The “% Intact Protein at 10 min” value of the first is higher: 19% for the first, 0% for the second.

Compared with B5, B6 is lower in “% Intact Protein at 10 min” value: 11.5% for the first, 0% for the second.

Going from B7 to B8, the “% Intact Protein at 10 min” value falls from 20.3% to 0%.

Going from B9 to B10, the “% Intact Protein at 10 min” value rises from 0% to 11.8%.

Compared with B11, B12 is higher in “% Intact Protein at 10 min” value: 0% for the first, 36.4% for the second.

B13 and B14 are the same in “% Intact Protein at 10 min” value: 0% for the first, 0% for the second.

B15 and B16 are the same in “% Intact Protein at 10 min” value: 0% for the first, 0% for the second.

In the case of B17, the “% Intact Protein at 10 min” value is reported as 13.7%.
